Laboratory results: patent US20120219559A1 (Johns Hopkins, published 2012)

Experiments:
Assay in all cases: CDS well image, 293T cells transfected with the human gene, stained with the human fusion protein
[1] = target: T1, human B7-2 (CD86, B70) expressed on 293T cells (human, UniProt P42081 24-329)
T1 construct: whole, on cells
T1 sequence (looked up): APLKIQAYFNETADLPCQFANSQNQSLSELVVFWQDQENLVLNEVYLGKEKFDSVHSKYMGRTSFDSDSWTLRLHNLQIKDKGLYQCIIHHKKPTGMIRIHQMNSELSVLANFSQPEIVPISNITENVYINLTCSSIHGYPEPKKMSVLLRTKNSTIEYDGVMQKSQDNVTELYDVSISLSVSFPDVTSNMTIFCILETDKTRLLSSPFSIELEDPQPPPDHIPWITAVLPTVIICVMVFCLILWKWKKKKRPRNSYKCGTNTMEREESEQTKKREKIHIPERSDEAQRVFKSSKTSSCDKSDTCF

[2] = target: T2, human CD28, full length, expressed on cells (CD28+293T cells) (human, UniProt P10747 19-220)
T2 construct: This id also stands for CD28 on purified human T cells in the functional rows; also called CD28+ cells

[3] = target: T3, human B7-DC expressed on 293T cells (human, UniProt Q9BQ51 20-273)
T3 construct: whole, on cells
T3 sequence (looked up): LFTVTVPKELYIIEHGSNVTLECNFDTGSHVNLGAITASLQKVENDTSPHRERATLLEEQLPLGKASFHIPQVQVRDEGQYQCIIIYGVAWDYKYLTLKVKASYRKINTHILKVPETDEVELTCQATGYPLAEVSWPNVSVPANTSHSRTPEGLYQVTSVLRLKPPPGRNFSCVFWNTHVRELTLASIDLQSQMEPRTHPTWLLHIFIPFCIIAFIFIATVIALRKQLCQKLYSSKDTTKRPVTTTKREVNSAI

[4] = target: T4, human ICOS, full length, expressed on cells (ICOS+293T cells) (human, UniProt Q9Y6W8 21-199)
T4 construct: This id also stands for ICOS on human T cells in the functional rows
T4 sequence: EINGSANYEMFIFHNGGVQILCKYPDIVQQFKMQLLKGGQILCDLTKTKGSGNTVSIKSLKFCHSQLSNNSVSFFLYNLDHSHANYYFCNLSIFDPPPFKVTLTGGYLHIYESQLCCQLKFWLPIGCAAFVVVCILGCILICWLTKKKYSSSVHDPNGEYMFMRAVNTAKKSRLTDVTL

Measured: binding result

T2 sequence (P10747 19-220): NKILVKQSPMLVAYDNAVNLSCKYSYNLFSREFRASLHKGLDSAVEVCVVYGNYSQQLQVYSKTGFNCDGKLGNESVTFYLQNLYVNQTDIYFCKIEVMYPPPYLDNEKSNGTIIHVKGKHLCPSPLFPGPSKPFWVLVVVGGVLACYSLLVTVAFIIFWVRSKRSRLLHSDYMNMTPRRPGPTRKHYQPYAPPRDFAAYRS

B1: human ICOSIg fusion protein (Fc fusion)
chain: EINGSANYEMFIFHNGGVQILCKYPDIVQQFKMQLLKGGQILCDLTKTKGSGNTVSIKSLKFCHSQLSNNSVSFFLYNLDHSHANYYFCNLSIFDPPPFKVTLTGGYLHIYESQLCCQLKF
notes: Bought from R&D Systems; Ig (Fc) part not given
no binding: [1] | [2] | [3] | [4]
